doi:10.1101/2022.10.28.514248 (bioRxiv, 2022)

Molecular target: the molecule itself
Experiment: crystal structure

B1: GDAP1ΔTM T157P (Ganglioside-induced differentiation-associated protein 1, amino acids 1-322, T157P) (domain or fragment, mouse)
chain: GGSMARRQDEARAGVPLRVEGPPDKEVHLILYHWTHSFSSQKVRLVIAEKALKCEEHDVSLPLSEHNEPWFMRLNSAGEVPVLVHGENIICEATQIIDYLEQTFLDERTPRLMPDEGSMYYPRVQHYRELLDSLPMDAYTHGCILHPELTVDSMIPAYAPTRIRSQIGNTESELKKLAEENPDLQEAYIAKQKRLKSKLLDHDNVKYLKKILDELEKVLDQVETELQRRNEETPEEGNQPWLCGESFTLADVSLAVTLHRLKFLGFARRNWGHGKRPNLETYYERVLKRKTFNKVLGHVNNILISAVLPTAFRVAKKRAPKVLGS
binding result: binds
